Source: the supplement of paper PMC9170038

Test system: MS2 coat protein
Assay: apparent KD of MS2 coat protein; higher = weaker reporter binding
Details: Eterna round: R107
How it was run: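 Titration buffer: 100 mM Tris-HCl pH 7.5, 80 mM KCl, 4 mM MgCl2, without or with constant ligand. Designed RNA switches transcribed on-chip from Illumina sequencing clusters received SNAP-549-labelled MS2 coat protein in twofold steps from 0.7 or 1.5 nM to 3 µM. Apparent KD is the median per design of fits to normalised cluster binding curves.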

[1] = input ligand: theophylline 20 uM
[2] = input ligand: theophylline 2 mM
[3] = input ligand: tryptophan 2.4 mM

Sequence	apparent KD of MS2 coat protein (input ligand: arginine 13.2 mM)	apparent KD of MS2 coat protein (input ligand: none)	apparent KD of MS2 coat protein [1]	apparent KD of MS2 coat protein [2]	apparent KD of MS2 coat protein [3]
CCGUUAAAAUUCCAUUAUACAAUACCUGAAGGAGCGUAGGAAACUACAGGUAGGUCGCAGAUACAUGAGGAUCACCCAUGUACGG [SSAA #13]	14.6 nM	16.2 nM	20.3 nM	22.5 nM	17.3 nM
CCUAGCACACAUGAUACCAGCGACAUGAGGAUCACCCAUGUACGGCGUGUAUCGCAAGGUUGCCCUUGGCAGCAUGAUAGUGCUG [Xeerdi]	12.7 nM	–	24.7 nM	–	14.2 nM
CCUAUAUAGUCGGCCGCCACUGACUACAUGAGGAUCACCCAUGUAACACGAACAUGGUCCUGGAUCAGGACCGGGACUAUAUAGG [Tryp B Ex t5]	16.5 nM	20.7 nM	24.2 nM	22.2 nM	122 nM
CCUAUCCAGUCGGCCGCCACUGACCAUUUGGAACAGUGGGUGAAAACAUGAGGAUCACCCAUGUACAGGACCGGGACUGUAUAGG [Ex Tryptophan B 20]	14.7 nM	–	15.7 nM	13.9 nM	–
CCUAUGCAGUCGGCCGCCACUGAGUCCUCAAUAAUAAAUUAAUAUACAUGAGGAUCACCCAUGUACAGGACCGGGACUGUAUAGG [Ex Tryptophan B 13]	96.7 nM	–	268 nM	215 nM	–
CCUCGGGACCGAAGGAGCGAGAUAACAACAUUGGGUCUCAACACAUGAGGAUCACCCAUGUCUCAGGUAGGUCGCGGUACCAUGG [Exclusion Arginine B GF22]	140 nM	385 nM	275 nM	387 nM	182 nM
CCUGAUAACUGAAGGAGCGAGAAACCCUACAUGAGGAUCACCCAUGUAUACACGGGAACUUCUCAGGUAGGUCGCAGUUUGUCAG [Adiso]	48 nM	101 nM	165 nM	138 nM	71.5 nM
CCUGCGUUUCUUCUUUCGCAGGAGGAUGAUACCAGUAGGGAAACCUACCCUUGGCAGCAUGGGACAUGAGGAUCACCCAUGUGGA [SSThA NP+V+V2 #1]	354 nM	503 nM	522 nM	130 nM	430 nM
CCUGCGUUUCUUUUCUUUCGCAGGAAUGAUACCAGUAGGGAAACCUACCCUUGGCAGCAUGGGACAUGAGGAUCACCCAUGUUUU [SSThA NP+V+V2 #4]	117 nM	–	202 nM	–	181 nM
CGAAUACGAAUUGAUACCAGCAUGUUAACAUGAGGAUCACCCAUGUUAAGGAUAACAUAAUGCCCUUGGCAGCAACGUAAAUUCG [Ab]	16.7 nM	–	17.7 nM	–	14.4 nM
CGAAUGAAGCAAGAUACCAGUGUAGAUUUAGACAUGAGGAUCACCCAUGUGAGGCAUGAGCACCCUUGGCAGCUUAAGCAGAAAA [theeternabot_sameState_MS2_Theo_B_47]	115 nM	28.7 nM	25.7 nM	60.5 nM	29.4 nM
CGAGUAAGAACAAUCGAAUAACGGUUUUCGCGAGGACCGGUACGGCCGCCACUCGUGUGAAAUAACACAUGAGGAUCACCCAUGU [3'end-1]	23.7 nM	–	26.8 nM	27.3 nM	–
CGAGUAAGAACAAUCGAAUAACGGUUUUCGCGAGGACCGGUACGGCCGCCACUCGUGUGAUAUAACACAUGAGGAUCACCCAUGU [3'end-1]	25.3 nM	–	37.6 nM	34.9 nM	–
CGAGUCCGCUGAUGGGCUAAGUCAGGUGAUACCAGCCACUCCCGCGGCCCUUGGCAGCACAUGAGGAUCACCCAUGUAGGGCUUG [Iserbele]	19.2 nM	–	51.1 nM	–	23.1 nM
CGAGUUCGCUGAUGGGCUACGUCAGGUGAUACCAGCCACUCCCGCGGCCCUUGGCAGCACAUGAGGAUCACCCAUGUAGAGCUUG [Esinve]	12.2 nM	–	28.6 nM	–	15 nM
CGAUUUAAGACGGCCGCCACUAUUAAGUAACAAAAUAAACAUGAGGAUCACCCAUGUACAUGGGAUAGGACCGGGUCCAAUAUCG [A2]	34.8 nM	–	79.7 nM	84.4 nM	–
CGCAACCCACAUGAGGAUCACCCAUGUGAAGGAGCGCCGAAUAAGGCAGGUAGGUCGCGCAUGAAUAAAUCAUGUAGGAAGCGAA [XArg-A 6 V1&2]	20.6 nM	32.2 nM	32.6 nM	33.4 nM	29.1 nM
CGCAACCCACAUGAGGAUCACCCAUGUGAAGGAGCGGCGAAUAAGCCAGGUAGGUCGCGCAUGAAUAAAUCAUGUAGGAAGCGAA [XArg-A 7 V1&2]	18 nM	20.1 nM	27.8 nM	28 nM	22.5 nM
CGCCACUCGAGUGAUCCUCACGAGUGGCUACGAGGACCGGUACGGCCGCCACUCGAAUUAACAUGAGGAUCACCCAUGUACUCCA [Brourdmod10]	17.4 nM	–	173 nM	193 nM	–
CGGACAUGAGGAUCACCCAUGUACACUGAAGGAGCGUCGAGAACGACAGGUAGGUCGCAGGUUGAGGAAGGUGAUGCUCAAGAAG [Exclusion Arginine A GF4]	25.1 nM	44.7 nM	71.9 nM	57.4 nM	50.6 nM
CGGCCCUCACACGAGGAUCACCCGUGUGAUACCAGCCUGGAAACAGGCCCUUGGCAGCACAAGGUCAUCAAAGAUGACCAAGCCG [TheoAX 22 #SwitchBubble]	9.52 nM	11.9 nM	18 nM	31.8 nM	12.6 nM
CGGCCCUCACCUGAGGAACACCCAGGUGAUACCAGCCUGGAAACAGGCCCUUGGCAGCACCAGGUCAUCAAAGAUGACCAAGCCG [TheoAX 24 #SwitchBubble #AlternativeMS2]	20.8 nM	20.1 nM	28.7 nM	171 nM	19.2 nM
CGGCCCUCACUUGAGGAUCACCCAAGUGAUACCAGCCUGGAAACAGGCCCUUGGCAGCACUAGGUCAUCAAAGAUGACCAAGCCG [TheoAX 28 #OpenEnded #AlternativeMS2]	14.8 nM	12.8 nM	26 nM	146 nM	13.4 nM
CGGCUCAUAAUGGAUACCAGUCCAGCAUAGAAACCUUGACACAUGAGGAUCACCCAUGUUGACCCUUGGCAGCCAUUGAUCAUAC [theeternabot_exclusion_MS2_Theo_B_28]	23.1 nM	–	36.5 nM	–	21.7 nM
CGGGUUCGGGCGGCCGCCACUUUGAUUGGGUGUGACAUGAGGAUCACCCAUGUUGUGGGUGAUCGGAGGACCGGGUUUGGGCUUG [Fidorka]	85.2 nM	65.6 nM	471 nM	744 nM	240 nM
CGGGUUGGACCAGGAAAUGGUCUGACGCGCCGAGGACCGGUACGGCCGCCACUCGCGGGUACAUGAGGAUCACCCAUGUCGGUGG [#1 Same State - Tryptophan A Attempt #12 (HarryS)]	58.2 nM	50.4 nM	69.3 nM	61.7 nM	93 nM
CGGUUUGUGAUGGAUACCAGCAGUGUGGCUGUUUAUCCUGACAUGAGGAUCACCCAUGUGUGCCCUUGGCAGCUGUUGUGGGCUG [8.aC]	64.1 nM	–	105 nM	–	77 nM
CGUAUCGUAACUGAUACCAGUGUACUGACAUGAGGAUCACCCAUGUUGGGUUUUGUUGUACACCCUUGGCAGCAGAAUCGAUACG [AstrosExyTheB#6]	52.1 nM	–	68.6 nM	–	62.9 nM
CGUCAACAUGAGGAUCACCCAUGUUUCGAUACCAGUGACCCUCUCCACCCUUGGCAGCGAGCGCCCGCGCCUGAUAAAUCUUCUA [theeternabot_sameState_MS2_Theo_A_18]	13.5 nM	–	16.4 nM	–	14.1 nM
CGUCGAAACUGAAGGAGCGAGAUGACAACAUUGGGUCUAACAUGAGGAUCACCCAUGUAAUCUCAGGUAGGUCGCGGUGACAACA [Exclusion Arginine B GF 17]	40.1 nM	38.9 nM	48.5 nM	59.6 nM	51.7 nM
